Test results reported in the supplement of paper PMC10126150.
± gives the standard deviation of the averaged measurements.

Tested on: ATP
Test: switch fluorescence ratio, 500 uM ATP over buffer (Cy3 cluster intensity, sum of 5 cycles each) (fold (ratio)); higher = stronger signal-on switching upon ATP binding; sequences stand for … in TCGTCGGCAGCGTCAGATGTGTATAAGAGACAGTTTTTTTTTTTTTTTTTTTTTTTTT…TC
Conditions: aptamer strand: ATP DNA aptamer (quencher-CACCTGGGGGAGTATTGCGGAGGAAGG + anchor), 100 nM annealed; ATP concentration: 500 uM
In short: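 Clusters carrying Cy3-labelled switching strands on a modified Illumina MiSeq flow-cell were annealed to 100 nM quencher-labelled ATP aptamer and imaged in selection buffer. They were imaged again after 15 min with 500 uM ATP at 22 °C, over five buffer/ATP cycles with NaOH stripping and re-annealing in between. For each cluster, the fluorescence ratio is the summed Cy3 intensity of the target cycles divided by that of the buffer cycles, averaged per switch-domain sequence. Clusters outside 100-1000 RFU were left out.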
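Further: ATP exposure 15 min at 22 °C before imaging.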

ATCTGTCTAT
switch fluorescence ratio: 0.98 ± 0.026

ATCTTAAATA
switch fluorescence ratio: 0.9918 ± 0.0058

ATCTTGGTCT
switch fluorescence ratio: 1.01 ± 0.045

ATCTTTTTGG
switch fluorescence ratio: 0.996 ± 0.024

ATGAAAGACC
switch fluorescence ratio: 1.0427 ± 0.00025

ATGAAAGGAT
switch fluorescence ratio: 1.014 ± 0.0042

ATGAAAGGGT
switch fluorescence ratio: 0.998 ± 0.023

ATGAAATCAG
switch fluorescence ratio: 0.9991 ± 0.0044

ATGAAGACTA
switch fluorescence ratio: 0.9962 ± 0.0014

ATGAAGGGAT
switch fluorescence ratio: 0.9969 ± 0.00076

ATGAAGGTCT
switch fluorescence ratio: 0.968 ± 0.02

ATGAAGTAGG
switch fluorescence ratio: 0.989 ± 0.013

ATGAAGTGAG
switch fluorescence ratio: 1.01 ± 0.027

ATGAATAAAT
switch fluorescence ratio: 1.012 ± 0.0058

ATGAATAGAG
switch fluorescence ratio: 1.02 ± 0.031

ATGAATGTAT
switch fluorescence ratio: 0.9855 ± 0.0062

ATGAATTAAA
switch fluorescence ratio: 0.992 ± 0.018

ATGAATTTTT
switch fluorescence ratio: 0.992 ± 0.042

ATGACATGGG
switch fluorescence ratio: 1.04 ± 0.025

ATGACGAAAA
switch fluorescence ratio: 1.04 ± 0.058

ATGACGCGGG
switch fluorescence ratio: 0.959 ± 0.023

ATGACGCTTT
switch fluorescence ratio: 1.02 ± 0.022

ATGACTGGAG
switch fluorescence ratio: 0.9896 ± 0.0076

ATGACTTGTA
switch fluorescence ratio: 0.987 ± 0.015

ATGAGAATAG
switch fluorescence ratio: 1.01 ± 0.0016

ATGAGATAGT
switch fluorescence ratio: 1.002 ± 0.0049

ATGAGCACAA
switch fluorescence ratio: 1.09 ± 0.017

ATGAGCATTC
switch fluorescence ratio: 1.18 ± 0.026

ATGAGGCGAA
switch fluorescence ratio: 1.01 ± 0.011

ATGAGGCTTT
switch fluorescence ratio: 1.02 ± 0.011

ATGAGGGCGG
switch fluorescence ratio: 0.98 ± 0.021

ATGAGGGTCC
switch fluorescence ratio: 1.1 ± 0.032

ATGAGGGTCG
switch fluorescence ratio: 0.993 ± 0.014

ATGAGGTTAC
switch fluorescence ratio: 0.988 ± 0.074

ATGAGTACGG
switch fluorescence ratio: 1.04 ± 0.03

ATGAGTAGGG
switch fluorescence ratio: 1.018 ± 0.0098

ATGAGTCATG
switch fluorescence ratio: 1.01 ± 0.028

ATGAGTCGGA
switch fluorescence ratio: 0.975 ± 0.055

ATGAGTGACC
switch fluorescence ratio: 1.02 ± 0.016

ATGAGTGGTG
switch fluorescence ratio: 1.019 ± 0.0077

ATGAGTTATT
switch fluorescence ratio: 1.01 ± 0.013

ATGAGTTGCG
switch fluorescence ratio: 0.977 ± 0.029

ATGATACTTC
switch fluorescence ratio: 0.9968 ± 0.0027

ATGATAGGGA
switch fluorescence ratio: 1.01 ± 0.063

ATGATAGTAC
switch fluorescence ratio: 1.04 ± 0.017

ATGATATGCA
switch fluorescence ratio: 1.017 ± 0.003

ATGATCCCGC
switch fluorescence ratio: 1.2 ± 0.019

ATGATCTTCG
switch fluorescence ratio: 1.038 ± 0.0053

ATGATGATAG
switch fluorescence ratio: 1.01 ± 0.02

ATGATGATGA
switch fluorescence ratio: 1.03 ± 0.02

ATGATGCTGG
switch fluorescence ratio: 1.02 ± 0.077

ATGATGTAAT
switch fluorescence ratio: 0.995 ± 0.051

ATGATTACGT
switch fluorescence ratio: 1.01 ± 0.03

ATGATTAGGA
switch fluorescence ratio: 0.987 ± 0.037

ATGATTATGG
switch fluorescence ratio: 1.02 ± 0.014

ATGATTGCGA
switch fluorescence ratio: 1.01 ± 0.061

ATGATTGGA
switch fluorescence ratio: 0.992 ± 0.015

ATGCAACGTC
switch fluorescence ratio: 0.989 ± 0.049

ATGCACAGAT
switch fluorescence ratio: 0.994 ± 0.027

ATGCAGAATT
switch fluorescence ratio: 0.988 ± 0.017

ATGCAGCAGT
switch fluorescence ratio: 1.46 ± 0.051

ATGCAGGTAT
switch fluorescence ratio: 1.01 ± 0.049

ATGCATCGAG
switch fluorescence ratio: 1.01 ± 0.03

ATGCATCTAT
switch fluorescence ratio: 0.989 ± 0.011

ATGCATGGGG
switch fluorescence ratio: 1.01 ± 0.017

ATGCCAATAA
switch fluorescence ratio: 1.01 ± 0.03

ATGCCCGTCG
switch fluorescence ratio: 1.06 ± 0.043

ATGCCGGGGG
switch fluorescence ratio: 1 ± 0.021

ATGCGCAGCG
switch fluorescence ratio: 1.04 ± 0.035

ATGCGCTCGA
switch fluorescence ratio: 1.02 ± 0.053

ATGCGCTGGG
switch fluorescence ratio: 1.01 ± 0.021

ATGCGGAGTG
switch fluorescence ratio: 0.987 ± 0.02

ATGCGGGGTC
switch fluorescence ratio: 1.03 ± 0.053

ATGCGGTCCT
switch fluorescence ratio: 1.02 ± 0.016

ATGCGGTCGG
switch fluorescence ratio: 1.02 ± 0.045

ATGCGTAGGT
switch fluorescence ratio: 0.988 ± 0.049

ATGCGTATCC
switch fluorescence ratio: 1 ± 0.034

ATGCTGATGT
switch fluorescence ratio: 1.016 ± 0.0011

ATGCTGGGGT
switch fluorescence ratio: 0.986 ± 0.021

ATGCTGGGTA
switch fluorescence ratio: 0.997 ± 0.026

ATGCTTCTGT
switch fluorescence ratio: 0.964 ± 0.013

ATGCTTGATT
switch fluorescence ratio: 1.017 ± 0.0041

ATGGAAAAGC
switch fluorescence ratio: 1 ± 0.056

ATGGAAAGAA
switch fluorescence ratio: 0.974 ± 0.038

ATGGAAAGTT
switch fluorescence ratio: 0.99 ± 0.035

ATGGAACTTG
switch fluorescence ratio: 0.9943 ± 0.0059

ATGGAAGTG
switch fluorescence ratio: 1.001 ± 0.0015

ATGGAATAT
switch fluorescence ratio: 0.969 ± 0.038

ATGGACATAC
switch fluorescence ratio: 1.22 ± 0.098

ATGGACTCCT
switch fluorescence ratio: 1.04 ± 0.044

ATGGAGCAGT
switch fluorescence ratio: 1.6 ± 0.019

ATGGAGGCGG
switch fluorescence ratio: 1.04 ± 0.04

ATGGAGGGGG
switch fluorescence ratio: 1.02 ± 0.047

ATGGATAAGC
switch fluorescence ratio: 0.997 ± 0.011

ATGGATAATG
switch fluorescence ratio: 0.977 ± 0.054

ATGGATAATT
switch fluorescence ratio: 1.04 ± 0.011

ATGGATTGAT
switch fluorescence ratio: 0.9621 ± 0.0051

ATGGATTTAT
switch fluorescence ratio: 0.992 ± 0.037

ATGGCACAAT
switch fluorescence ratio: 1.02 ± 0.067

ATGGCCGATA
switch fluorescence ratio: 0.9537 ± 0.0027

ATGGCCGGTG
switch fluorescence ratio: 1.006 ± 0.004

ATGGCCTTAG
switch fluorescence ratio: 0.9931 ± 0.0094

ATGGCTTGTA
switch fluorescence ratio: 0.999 ± 0.01

ATGGGAAACT
switch fluorescence ratio: 1.012 ± 0.0074

ATGGGAATAC
switch fluorescence ratio: 2.59 ± 0.28

ATGGGACCGT
switch fluorescence ratio: 1.01 ± 0.056

ATGGGACGAT
switch fluorescence ratio: 0.995 ± 0.026

ATGGGATGGG
switch fluorescence ratio: 1 ± 0.025

ATGGGCAACT
switch fluorescence ratio: 0.99 ± 0.024

ATGGGCACGG
switch fluorescence ratio: 0.99 ± 0.025

ATGGGCCGAG
switch fluorescence ratio: 0.989 ± 0.04

ATGGGCCTGG
switch fluorescence ratio: 0.9792 ± 0.0094

ATGGGCGTGG
switch fluorescence ratio: 1 ± 0.06

ATGGGCTGGA
switch fluorescence ratio: 1.04 ± 0.015

ATGGGGCCAA
switch fluorescence ratio: 1.03 ± 0.031

ATGGGGCCTG
switch fluorescence ratio: 0.9828 ± 0.0078

ATGGGGCTGA
switch fluorescence ratio: 0.993 ± 0.029

ATGGGGCTTT
switch fluorescence ratio: 1.01 ± 0.013

ATGGGGGCCG
switch fluorescence ratio: 1.01 ± 0.039

ATGGGGGCTT
switch fluorescence ratio: 1.02 ± 0.047

ATGGGGGGCC
switch fluorescence ratio: 0.995 ± 0.026

ATGGGGGTTC
switch fluorescence ratio: 0.992 ± 0.023

ATGGGGGTTG
switch fluorescence ratio: 0.999 ± 0.018

ATGGGGTCAG
switch fluorescence ratio: 0.993 ± 0.021

ATGGGGTTGG
switch fluorescence ratio: 1 ± 0.049

ATGGGGTTTT
switch fluorescence ratio: 1.01 ± 0.02

ATGGGTAGAG
switch fluorescence ratio: 1 ± 0.022

ATGGGTATGT
switch fluorescence ratio: 1.01 ± 0.043

ATGGGTCACG
switch fluorescence ratio: 0.987 ± 0.012

ATGGGTCAGT
switch fluorescence ratio: 0.9872 ± 0.0044

ATGGGTCGGA
switch fluorescence ratio: 1.01 ± 0.053

ATGGGTCTAT
switch fluorescence ratio: 1 ± 0.012

ATGGGTCTT
switch fluorescence ratio: 1.01 ± 0.023

ATGGGTGGTT
switch fluorescence ratio: 0.995 ± 0.032

ATGGGTGTCG
switch fluorescence ratio: 1.05 ± 0.015

ATGGGTTCGC
switch fluorescence ratio: 0.976 ± 0.035

ATGGGTTCTG
switch fluorescence ratio: 0.999 ± 0.017

ATGGTAAAAA
switch fluorescence ratio: 1.05 ± 0.1

ATGGTAAACC
switch fluorescence ratio: 1.16 ± 0.066

ATGGTACCCT
switch fluorescence ratio: 1.038 ± 0.0052

ATGGTACCGT
switch fluorescence ratio: 1.02 ± 0.014

ATGGTAGGGT
switch fluorescence ratio: 1.01 ± 0.018

ATGGTCAGAT
switch fluorescence ratio: 0.994 ± 0.027

ATGGTCAGGC
switch fluorescence ratio: 0.973 ± 0.019

ATGGTCATGT
switch fluorescence ratio: 0.9943 ± 0.0072

ATGGTCCATG
switch fluorescence ratio: 0.995 ± 0.022

ATGGTCCGGT
switch fluorescence ratio: 0.988 ± 0.015

ATGGTCTGGG
switch fluorescence ratio: 0.971 ± 0.011

ATGGTGCAGG
switch fluorescence ratio: 1.06 ± 0.011

ATGGTGGAGG
switch fluorescence ratio: 1.01 ± 0.024

ATGGTGGCAT
switch fluorescence ratio: 1.01 ± 0.012

ATGGTGGGGC
switch fluorescence ratio: 0.979 ± 0.047

ATGGTGTCTT
switch fluorescence ratio: 0.961 ± 0.023

ATGGTGTGCG
switch fluorescence ratio: 1.01 ± 0.025

ATGGTGTGGG
switch fluorescence ratio: 1.03 ± 0.021

ATGGTGTTTT
switch fluorescence ratio: 0.9803 ± 0.008

ATGGTTAGCT
switch fluorescence ratio: 1.02 ± 0.027

ATGGTTAGGG
switch fluorescence ratio: 1.03 ± 0.033

ATGGTTCCAC
switch fluorescence ratio: 0.997 ± 0.024

ATGGTTTAGG
switch fluorescence ratio: 0.988 ± 0.038

ATGGTTTGGG
switch fluorescence ratio: 0.99 ± 0.045

ATGGTTTTG
switch fluorescence ratio: 0.975 ± 0.047

ATGGTTTTT
switch fluorescence ratio: 0.984 ± 0.022

ATGTAACTTT
switch fluorescence ratio: 1.16 ± 0.27

ATGTAAGAGG
switch fluorescence ratio: 0.9754 ± 0.0093

ATGTAAGGAG
switch fluorescence ratio: 1.02 ± 0.018

ATGTAATGGT
switch fluorescence ratio: 1.01 ± 0.03

ATGTAATTAA
switch fluorescence ratio: 0.964 ± 0.046

ATGTAATTTC
switch fluorescence ratio: 0.9987 ± 0.0036

ATGTACATTT
switch fluorescence ratio: 1.068 ± 0.0059

ATGTAGACGG
switch fluorescence ratio: 0.984 ± 0.011

ATGTAGAGGC
switch fluorescence ratio: 0.987 ± 0.026

ATGTAGATAT
switch fluorescence ratio: 1.01 ± 0.021

ATGTAGCATC
switch fluorescence ratio: 1.56 ± 0.028

ATGTAGGGTC
switch fluorescence ratio: 1.02 ± 0.02

ATGTAGGGTG
switch fluorescence ratio: 1.008 ± 0.0039

ATGTAGGTTG
switch fluorescence ratio: 0.988 ± 0.029

ATGTATATAA
switch fluorescence ratio: 0.985 ± 0.018

ATGTATGTGC
switch fluorescence ratio: 0.997 ± 0.041

ATGTATGTTG
switch fluorescence ratio: 0.982 ± 0.072

ATGTATTACT
switch fluorescence ratio: 1.03 ± 0.033

ATGTCAGAGG
switch fluorescence ratio: 0.977 ± 0.041

ATGTCAGCGC
switch fluorescence ratio: 1 ± 0.044

ATGTCAGGGG
switch fluorescence ratio: 1.14 ± 0.021

ATGTCAGGTG
switch fluorescence ratio: 4.1 ± 0.71

ATGTCCGGG
switch fluorescence ratio: 0.968 ± 0.045

ATGTCCTAGC
switch fluorescence ratio: 1.03 ± 0.0038

ATGTCGGGCA
switch fluorescence ratio: 0.986 ± 0.064

ATGTCGTGTG
switch fluorescence ratio: 0.9923 ± 0.0066

ATGTGAGGGG
switch fluorescence ratio: 0.986 ± 0.029

ATGTGCGGGG
switch fluorescence ratio: 0.99 ± 0.019

ATGTGGAATG
switch fluorescence ratio: 0.994 ± 0.037

ATGTGGAGAC
switch fluorescence ratio: 0.9921 ± 0.005

ATGTGGGTCT
switch fluorescence ratio: 1.02 ± 0.056

ATGTGGGTGT
switch fluorescence ratio: 1.02 ± 0.013

ATGTGGGTTG
switch fluorescence ratio: 1.03 ± 0.022

ATGTGGTGAC
switch fluorescence ratio: 0.978 ± 0.039

ATGTGGTTCC
switch fluorescence ratio: 1.004 ± 0.0025

ATGTGTATTT
switch fluorescence ratio: 1.03 ± 0.023

ATGTGTGGGG
switch fluorescence ratio: 1.01 ± 0.063
